± gives the standard deviation of the averaged measurements.
tested on: ATP; experiment: switch fluorescence ratio, 500 uM ATP over buffer (Cy3 cluster intensity, sum of 5 cycles each) (fold (ratio)); higher = stronger signal-on switching upon ATP binding; sequences stand for … in TCGTCGGCAGCGTCAGATGTGTATAAGAGACAGTTTTTTTTTTTTTTTTTTTTTTTTT…TC; conditions: aptamer strand: ATP DNA aptamer (quencher-CACCTGGGGGAGTATTGCGGAGGAAGG + anchor), 100 nM annealed; ATP concentration: 500 uM
Procedure, shortened: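 Imaging in selection buffer was followed by imaging after 15 min with 500 uM ATP at 22 °C, for Cy3-labelled switching-strand clusters annealed to 100 nM quencher-labelled ATP aptamer on a modified Illumina MiSeq flow-cell. Five of these buffer/ATP cycles ran, separated by NaOH stripping and re-annealing. The fluorescence ratio per cluster is summed target-cycle over summed buffer-cycle Cy3 intensity, averaged per switch-domain sequence; clusters outside 100-1000 RFU were removed.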
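Note: ATP exposure 15 min at 22 °C before imaging.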

Sequence	switch fluorescence ratio
TTTGTATGCA	1.04 ± 0.057
AGGGGGGCGC	0.993 ± 0.033
GCTATAAAAC	1.03 ± 0.077
TGGGGGCTT	1.03 ± 0.014
CTAGTGTCTC	0.989 ± 0.025
GGAAGATTTT	0.989 ± 0.058
AAGTTTTGTG	0.9869 ± 0.0074
ACGGCCTAAA	0.98 ± 0.043
ACGGTATAGT	1.1 ± 0.017
GTTTATGTTA	1.017 ± 0.0018
TTTATTGACT	1.03 ± 0.013
GCCTAAGGGA	1 ± 0.0063
AGGGAAGTCG	0.9751 ± 0.0093
TTTGCGACTG	1.03 ± 0.015
ACTTCCCAAC	1.33 ± 0.047
GATAGATTAG	0.998 ± 0.0038
CTGCACGGAG	1.01 ± 0.022
GCCTCAAGTT	1.03 ± 0.052
TCAGGGGTCT	0.994 ± 0.011
GTTGGTCTAC	1.04 ± 0.018
TTGGAGATAT	1.07 ± 0.13
AAGATAATAG	0.993 ± 0.024
AGTATCAGAA	1 ± 0.042

Sequence	switch fluorescence ratio
GCATCACGTA	1.17 ± 0.024
ATGCTGATGT	1.016 ± 0.0011
TGGGTATTCG	0.967 ± 0.029
GGTCGATTCG	0.961 ± 0.013
TATGGAGGGA	0.996 ± 0.021
ATGAGGCTTT	1.02 ± 0.011
GCAGTTGTGT	0.9941 ± 0.0058
TGGGTTTTAC	1.01 ± 0.049
CGGGGTAGCT	0.989 ± 0.035
GTGTGTGTAA	1.01 ± 0.045
CCCTGAGGGT	1.01 ± 0.023
TTGGATCGCA	0.985 ± 0.017
GGGTGGGGAG	0.984 ± 0.045
TTCGTTCGAA	1.03 ± 0.067
AGCATTTATA	0.981 ± 0.016
TAGTGGCTTA	0.98 ± 0.042
GGAGTCTGG	1.0086 ± 0.0004
GAGTTTATGT	1.01 ± 0.022
GGCCTGTTTT	1.09 ± 0.21
TCGATGCTAG	1.03 ± 0.065
GGGGAAGGT	1.04 ± 0.019
TTTGTCGATA	1.05 ± 0.025
GCCCCCTTCG	1.08 ± 0.065

Sequence	switch fluorescence ratio
ACCATAGGCT	1.01 ± 0.055
ACTATTTGCG	0.991 ± 0.042
ATTCATTTTC	1.02 ± 0.015
GATATTGAGT	0.9648 ± 0.0073
ATATCATGGG	0.982 ± 0.017
CATGAGATTG	0.971 ± 0.029
GAATATAGTG	1.02 ± 0.011
ATGATATGCA	1.017 ± 0.003
TAGGGAGGTG	1.04 ± 0.053
ATCAAAAACG	1.01 ± 0.029
TGTCCAGCTC	1.49 ± 0.65
TGGTATAGTT	0.981 ± 0.049
TTGAGTACGT	0.992 ± 0.045
TCATAAAAGC	0.99 ± 0.027
TCTGGTACAG	0.969 ± 0.02
TGGAGAGTAG	1.01 ± 0.032
AGACGCGCCA	1.05 ± 0.087
TAGTGATGTT	0.983 ± 0.018
TAAGCTCAAT	0.979 ± 0.012
AATTGTTGGT	1.01 ± 0.036
AGCTTTTTGA	0.966 ± 0.025
GTGAAAAGGC	0.9862 ± 0.0032
AAGTTTGCAT	0.978 ± 0.021

Sequence	switch fluorescence ratio
GCTGCAGCGC	1.005 ± 0.0042
TGGTGTTTTT	0.992 ± 0.027
GGGGGATGAA	0.991 ± 0.025
ATTTAAGGGT	0.993 ± 0.032
CCACAATCAG	1.274 ± 0.012
CAGGTTTTTT	0.989 ± 0.019
GCGCGAGTAG	1.03 ± 0.028
ATGCAGAATT	0.988 ± 0.017
TAATGGACAA	1.04 ± 0.017
GGATTAGGAG	0.975 ± 0.011
TTAATCTAGC	0.991 ± 0.021
GTATTGCCAG	0.995 ± 0.029
ATATAGGTA	1.036 ± 0.0097
GAGGGAAGGT	1.02 ± 0.02
TCATTTAGGG	0.9893 ± 0.0081
TGGTATTCGC	1.01 ± 0.023
GGGTTTGATC	0.9749 ± 0.008
CTATATTAGG	0.997 ± 0.032
TTTATGGGGA	1 ± 0.02
GGGGCCGGGA	1.12 ± 0.19
GCGGCTTCGT	1.02 ± 0.07
TAACGGGGGA	1.01 ± 0.062
CGATTACGAT	1.01 ± 0.03

Sequence	switch fluorescence ratio
TTAGTGTTGT	0.969 ± 0.028
CGGGGGGGTA	1 ± 0.027
AATGGAGTGG	0.997 ± 0.028
GCGTAAGCAG	0.981 ± 0.012
GATAATTGGT	0.998 ± 0.012
CTGCTTGGTT	1.001 ± 0.0047
AGGTTTTATT	0.948 ± 0.023
TTTTACTGCT	1.15 ± 0.18
TTCGGGGGGC	0.961 ± 0.039
AGGGGTATTC	1.01 ± 0.049
AGGGGCTATA	0.9703 ± 0.0061
TTTTCGCATT	1.23 ± 0.051
TACACTGATA	1.08 ± 0.043
AGAGAGTTTA	1.04 ± 0.021
TTTACTAGAT	1.05 ± 0.012
TGTTTGGTAA	0.981 ± 0.024
GAAACTGGGG	1.02 ± 0.031
GGGGTGGTAT	0.99 ± 0.044
CTGTGGGTTC	1 ± 0.016
GTTTTGACAT	0.993 ± 0.0013
GTTAATACCC	1.04 ± 0.014
ATGTGGTGAC	0.978 ± 0.039
CGTTAGCGGG	1 ± 0.018

Sequence	switch fluorescence ratio
TCTTGAACGT	0.978 ± 0.018
GAGGGTAGGT	1.06 ± 0.063
TTATTAAGCT	1.01 ± 0.027
ATCACGGGCT	0.967 ± 0.027
CGTAGGGTTG	0.974 ± 0.057
AATAAGAATA	1 ± 0.037
GCAGTTTTTG	0.9746 ± 0.0056
GAGAGGTG	1.08 ± 0.021
CATTTTTGTA	0.986 ± 0.012
GCTACTGGAT	1.007 ± 0.0058
CTGTATATAG	1.017 ± 0.0083
ATGTGTGGGG	1.01 ± 0.063
AGGGCATTCA	1.02 ± 0.046
TAGAAAGGTC	1.073 ± 0.0025
CGTGAGAGCA	1.01 ± 0.035
TATCAAAAAT	0.994 ± 0.013
GATGTGGCTT	0.961 ± 0.015
TTTGGCAGTC	1.1 ± 0.13
CCCGGAAGGT	1.041 ± 0.0048
ATAGCTCTCG	1.01 ± 0.037
TGTGTGAGT	0.964 ± 0.013
AGGTTTGTA	1.04 ± 0.016
ATTAGTTGTA	1 ± 0.025

Sequence	switch fluorescence ratio
GTTGTTATTG	1.01 ± 0.021
TGTCGGGATT	1.03 ± 0.053
TTTTGTGCTG	0.984 ± 0.052
CTGATGGGGA	0.961 ± 0.033
GGGGTCAGTT	0.973 ± 0.025
TAGGTGGTCC	0.9892 ± 0.0014
TAAAATTTTT	1.002 ± 0.01
CACAGCTAAA	1.09 ± 0.018
TTTGGATCTG	1.034 ± 0.0094
CGGAGTGCTT	1.03 ± 0.021
GTTACTTAGC	1.04 ± 0.082
AGAGTTTTGG	0.979 ± 0.025
CCGGTAGGCC	0.978 ± 0.033
GCTTACTCAT	1.09 ± 0.043
AACTATGATG	0.996 ± 0.03
AAGCATGCTC	1.09 ± 0.03
AAGGTCATTA	0.97235 ± 0.00041
AAAACGCGCT	0.965 ± 0.079
TGGGATGCAG	1.01 ± 0.065

— the supplement of paper PMC10126150
